Laboratory results as given in patent publication US12552866B2, “Internalizing binding molecules targeting receptors involved in cell proliferation or in cell differentiation” (LinXis B.V., priority 2019, dated 2026).
Positions count from the first letter of the chain named. Entries after “also recorded” stand apart in the source; their conditions may differ. Each block holds one molecule with its values, some of them ahead of it.

Columns and labels:
hIGF2R-ECD [1] = target: T1, hIGF2R-ECD (Homo sapiens, UniProt P11717); assay: Binding assay / titration ELISA on recombinant hIGF2R-ECD; conditions: construct conjugated to Alexa Fluor 647, direct read out; KD+SEM, n=2; read-out: calculated affinity (KD)
T1 construct: recombinant human extracellular domain of IGF2R (hIGF2R-ECD)
Protocol: The 15 unique hIGF2R binders (Example 1.1, FIG. 2) were produced and purified as described in examples 2 and 3. The apparent affinities were determined with binding assays on hIGF2R-ECD. Briefly, three-fold serial VHH dilutions, starting from 1 μM, were added onto hIGF2R-ECD coated plates. After 2 hours of incubation, plates were washed and bound VHH was detected using a VHH-specific IgG antibody, followed by an IRD800CW-conjugated IgG-specific antibody. […] VHH 13F11 was also produced with a C-terminal free cysteine and conjugated using maleimide chemistry to Alexa Fluor 647 (13F11-A647 in FIG. 8A, conjugation method as described in example 9.2). A titration ELISA (direct read out at 647 nm) with this construct was carried out on hIGF2R-ECD to determine whether the affinity was affected after site directed conjugation (FIG. 8B). The KD and Bmax were calculated in Graphpad (version 8.3), using one-site specific binding analysis (FIG. 8C).
Based on their high affinity and binding to non-overlapping receptor epitopes, VHHs 13F11 and 13E8 were selected for the design of biparatopic and bivalent VHH constructs. Two VHHs were fused with a flexible linker, consisting of three Gly-Gly-Gly-Gly-Ser repeats (FIG. 8A). The sequences were codon optimized for expression in E. coli and obtained as synthesized DNA fragments from GeneArt. The DNA fragments encoding VHHs were cloned into a vector pET28-based vector introducing a C-terminal free cysteine for site-directed conjugation and His6 tag for IMAC purification (FIG. 8A). The constructs were produced and purified as described in example 3. The constructs were conjugated to Alexa Fluor 647 (conjugation method as described in example 9.2) and titration ELISAs on recombinant hIGF2R-ECD (as described in example 4.1) were performed to determine the KD and Bmax (calculated in Graphpad (version 8.3), using one-site specific binding analysis) (FIG. 8C).
Next, 13F11-13E8 was genetically re-engineered to include an in vivo half-life extender in the form of an albumin binding domain (ABD) as described by Johansson et al (Structure, specificity, and mode of interaction for bacterial albumin-binding modules, J. Biol. Chem. 2002 (277): 8114-8120) and subsequently produced and purified as described in Example 3. Subsequently, 13F11-13E8-ABD was conjugated to IRDye800CW (F11E8-ABD-IRD800, conjugation method as described in example 9.2) and the binding affinities of the biparatopic VHH as well as the ABD unit was determined. […] The binding affinity (KD) of F11-E8-ABD-IRD800 to rat serum albumin (RSA) was 30 nM and to mouse serum albumin (MSA) and human serum albumin (HSA) the binding affinity was approximately 200 nM.

hIGF2R-ECD [2] = target: T1, hIGF2R-ECD; assay: Competition ELISA with 13F11-A647 on immobilized hIGF2R-ECD; type: binding; conditions: for competition with 13F11 for binding to hIGF2R-ECD: 10 nM 13F11-A647, 250 nM unconjugated competitor
Protocol: With the term “compete” is meant that in a competition assay, such as for instance described in Example 5 and Example 8 of the present invention, the addition of a binding molecule induces a significant decrease in binding of a given VHH, i.e., the VHH to which the competing is determined. “Significant” in this respect is preferably a decrease of >5%, preferably >10% when 250 nM of a binding molecule is added to 10 nM of a fluorescence labelled VHH in an ELISA. […] The same test conditions and threshold apply to a binding molecule directed to PDGFRB when determining whether a binding molecule competes with a given VHH.
From the panel of 15 hIGF2R specific binders (FIG. 2), VHHs 13A8, 13A12, 13C11, 13E8, 13F11 and 13G10 were chosen for further characterization. A competition assay was performed to determine if the selected VHHs recognize distinct epitopes on hIGF2R. For this, a non-saturating amount (10 nM) of 13F11 conjugated to Alexa Fluor 647 (13F11-A647, conjugation method as described in example 9.2) was incubated with immobilized hIGF2R-ECD in the presence of unconjugated competitor (250 nM) (FIG. 10). Incubation of hIGF2R-ECD with 13F11-A647+13F11 was used as a positive control and incubation of hIGF2R-ECD with only 13F11-A647 was used to define the maximal fluorescence intensity.

[3] = In vivo pharmacokinetics in healthy Sprague-Dawley rats (serum ELISA); parameters: species or system rat
Protocol: The in vivo pharmacokinetic properties of 13F11-13E8-ABD was compared to 13F11-13E8 without the ABD moiety in healthy Sprague-Dawley rats. In brief, rats were dosed intravenously with approximately 3 mg/kg body weight and blood samples were taken at different time points and the concentration of the VHH constructs were determined using an ELISA on immobilized hIGF2R-ECD.

IGF2R [4] = target: T2, IGF2R (Rattus norvegicus, UniProt G3V824); assay: Immunofluorescence staining of tissue cryo-sections of BDL and SHAM rats
T2 construct: from tissue; host or cells: cryo-sections of liver and other tissues, and liver in vivo, of Sprague-Dawley BDL and SHAM rats
T2 sequence (G3V824 36-2481): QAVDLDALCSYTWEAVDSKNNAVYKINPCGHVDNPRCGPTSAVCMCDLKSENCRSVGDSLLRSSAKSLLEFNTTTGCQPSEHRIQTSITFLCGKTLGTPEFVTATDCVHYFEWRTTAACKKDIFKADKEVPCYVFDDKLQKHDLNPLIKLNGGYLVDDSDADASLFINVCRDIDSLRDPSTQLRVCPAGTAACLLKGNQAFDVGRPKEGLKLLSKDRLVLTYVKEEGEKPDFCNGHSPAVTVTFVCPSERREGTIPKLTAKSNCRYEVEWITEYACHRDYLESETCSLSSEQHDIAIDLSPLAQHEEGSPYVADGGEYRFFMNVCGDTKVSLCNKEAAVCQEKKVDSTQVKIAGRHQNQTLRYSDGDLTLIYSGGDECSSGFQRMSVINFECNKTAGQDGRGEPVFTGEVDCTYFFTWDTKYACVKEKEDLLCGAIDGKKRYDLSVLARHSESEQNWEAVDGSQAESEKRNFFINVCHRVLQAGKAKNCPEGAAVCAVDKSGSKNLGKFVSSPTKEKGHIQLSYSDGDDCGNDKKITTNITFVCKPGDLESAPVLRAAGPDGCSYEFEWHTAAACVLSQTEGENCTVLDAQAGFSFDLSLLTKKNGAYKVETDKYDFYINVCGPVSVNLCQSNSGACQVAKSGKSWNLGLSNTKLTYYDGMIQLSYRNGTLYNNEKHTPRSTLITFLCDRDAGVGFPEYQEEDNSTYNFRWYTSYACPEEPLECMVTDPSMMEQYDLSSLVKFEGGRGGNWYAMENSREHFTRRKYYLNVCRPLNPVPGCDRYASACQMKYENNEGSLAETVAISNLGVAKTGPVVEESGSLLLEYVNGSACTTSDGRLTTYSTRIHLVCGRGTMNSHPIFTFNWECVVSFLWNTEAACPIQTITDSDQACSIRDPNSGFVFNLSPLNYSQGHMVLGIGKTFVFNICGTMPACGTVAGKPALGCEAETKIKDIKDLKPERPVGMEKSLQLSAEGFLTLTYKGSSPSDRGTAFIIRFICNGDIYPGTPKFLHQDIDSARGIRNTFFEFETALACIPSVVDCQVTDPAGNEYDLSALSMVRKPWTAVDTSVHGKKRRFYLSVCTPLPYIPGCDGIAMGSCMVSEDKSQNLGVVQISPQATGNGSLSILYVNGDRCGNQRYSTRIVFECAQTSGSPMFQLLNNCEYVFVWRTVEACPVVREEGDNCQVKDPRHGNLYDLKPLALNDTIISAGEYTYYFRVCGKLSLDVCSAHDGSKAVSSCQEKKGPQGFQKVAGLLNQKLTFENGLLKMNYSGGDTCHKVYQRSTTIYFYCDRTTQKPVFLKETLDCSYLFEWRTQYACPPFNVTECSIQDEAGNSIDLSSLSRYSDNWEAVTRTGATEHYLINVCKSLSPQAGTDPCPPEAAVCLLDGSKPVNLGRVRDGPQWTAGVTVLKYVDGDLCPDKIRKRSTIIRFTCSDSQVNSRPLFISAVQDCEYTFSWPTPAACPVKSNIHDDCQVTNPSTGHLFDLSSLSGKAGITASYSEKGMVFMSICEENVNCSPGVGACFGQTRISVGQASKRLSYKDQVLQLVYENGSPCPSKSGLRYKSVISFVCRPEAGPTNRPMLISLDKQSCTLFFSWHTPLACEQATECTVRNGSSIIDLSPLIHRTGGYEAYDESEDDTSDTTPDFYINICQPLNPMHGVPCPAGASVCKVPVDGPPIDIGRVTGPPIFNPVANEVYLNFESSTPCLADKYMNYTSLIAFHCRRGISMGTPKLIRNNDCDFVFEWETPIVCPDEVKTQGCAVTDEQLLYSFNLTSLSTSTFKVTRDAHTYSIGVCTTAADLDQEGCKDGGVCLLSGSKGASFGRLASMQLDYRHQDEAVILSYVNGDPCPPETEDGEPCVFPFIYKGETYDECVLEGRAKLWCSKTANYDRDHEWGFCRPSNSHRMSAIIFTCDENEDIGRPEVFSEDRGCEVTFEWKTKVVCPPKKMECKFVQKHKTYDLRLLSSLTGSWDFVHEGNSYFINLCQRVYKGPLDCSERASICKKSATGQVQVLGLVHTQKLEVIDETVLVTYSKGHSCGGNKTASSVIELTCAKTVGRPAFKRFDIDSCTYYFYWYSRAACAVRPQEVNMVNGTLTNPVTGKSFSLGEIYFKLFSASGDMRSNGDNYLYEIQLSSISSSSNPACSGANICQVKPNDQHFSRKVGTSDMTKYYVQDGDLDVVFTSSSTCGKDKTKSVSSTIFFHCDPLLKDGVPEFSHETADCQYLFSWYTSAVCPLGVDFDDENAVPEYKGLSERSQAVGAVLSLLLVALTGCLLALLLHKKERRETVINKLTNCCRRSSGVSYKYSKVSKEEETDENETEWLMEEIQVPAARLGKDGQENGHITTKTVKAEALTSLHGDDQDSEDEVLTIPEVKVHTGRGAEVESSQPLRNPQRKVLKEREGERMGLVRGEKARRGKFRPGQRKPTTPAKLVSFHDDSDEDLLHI
Protocol: After cryo-sectioning, the tissue sections were stained with 50 nM fluorescent 13F11-13E8-ABD-AF647 and incubated overnight at 4° C. Subsequently, the sections were washed and stained with DAPI and mounted with mowiol mounting medium (Merck) and were imaged on a Zeiss LSM700 laser scanning confocal microscope with a 20× objective.

[5] = tested on: BDL rats (portal hypertension); assay: Portal pressure and mean arterial pressure in BDL and SHAM rats after i.v. dosing; type: in vivo, rat; conditions: 5 mg/kg i.v.
Description: To evaluate in vivo functionality, 13F11-13E8-ABD was conjugated to a Y27632-maleimide modified functional moiety (1e) (the test conjugate) as outlined in example 9.2. To provide a comparator, a similar amount of 13F11-13E8-ABD was conjugated to N-ethylmaleimide in a parallel and similar preparation (the mock conjugate).
To establish animals displaying portal hypertension (Klein et al, Fibrosis: Methods and Protocols. Methods in Molecular Biology. 2017 (1627): 91-122.), Sprague-Dawley rats were subjected to bile duct ligation (BDL) through median laparotomy under ketamine/xylazine-induced anaesthesia i.p. (BDL rats). To provide healthy controls, a second cohort of rats was subjected to the same surgical procedure except for actual ligation of the bile duct (SHAM rats). Surgery was followed-up with pain control medication (carprofen s.c.). Approximately five weeks after surgery, ketamine/xylazine anesthetized rats were subjected to median laparotomy, after which one catheter was inserted through an ileocecal vein to the portal vein, and one catheter was inserted into the femoral artery. The catheters were connected to pressure recording equipment, for assessment of portal pressure and mean arterial pressure, respectively.
(§1) After catheterization and hemodynamic stabilization, rats were dosed with 5 mg/kg test conjugate or mock conjugate i.v. through the lateral tail vein and pressures were monitored continuously (example 13.1.). One hour after dosing, animals were sacrificed after which tissues were isolated for ex vivo analysis (example 13.2.).

IGF2R [6] = target: T2, IGF2R; assay: In situ detection of infused conjugate in liver cryo-sections (in vivo targeting of IGF2R)
Protocol: as §1
After isolation, livers obtained from test conjugate-infused BDL and SHAM rats were fixated with paraformaldehyde, soaked in 30% (w/v) sucrose in PBS, and sectioned using cryo-microtome. To detect the test conjugate in situ, tissue sections were stained with a rabbit polyclonal anti-VHH antiserum recognizing the 13F11-13E8 moiety of the conjugate, followed by an anti-rabbit antibody conjugated to the fluorophore Alexa-488 for visualization by confocal fluorescence microscopy (cf. example 12). […] Further accumulation of the test conjugate in the BDL liver beyond this one-hour time point was likely to have occurred.

[7] = one hour after 5 mg/kg i.v., anti-VHH staining

B2: 13A8: VHH targeting IGF2R, SEQ ID NO: 257 (protein, listed as Lama glama)
VHH: EVQLVESGGGLVPAGGSLRLSCAASGRTFSNYAMGWFRQAPGKERKFVATISWSGGVTYYADSVKGRFTISRDNAKNTVYLLMNSLKPEDTAVYYCAAKRDSSSYDHRRYDYWGQGTQVTVSS
competition with 13F11 for binding to hIGF2R-ECD (hIGF2R-ECD [2]): complete competition; also recorded: compete

B4: 13F11-13E8-ABD: 13F11-13E8 re-engineered to include an albumin binding domain (ABD) as half-life extender (protein)
chain: EVQLVESGGRLVQPGDSLRLSCAASGRTFSDNAMGWFRQAPGKERRFVAGISWAGGSTYYSDSVKGRFTISRDNAKNTVYLQMNSLKPEDTAVYYCAAGLRAWVQRMPKDYNYWGQGTQVTVSSGGGGSGGGGSGGGGSEVQLVESGGGLVQAGGSLRLSCAASRSISPMGWYRQAPGKQRELVAIMPSSGPPIYADSVQGRFTISRDNAKNTVYLQMNSLKPEDTAVYYCNVGGGYWGQGTQVTVSS
modifications: left off: large carriers; small tags and cut ends
fraction of the infused dose still in circulation ([3]; one hour after dosing, estimated serum volume 10 mL): approximately 50%
Cmax ([3]; rat, i.v., approximately 3 mg/kg, read-out: peak serum level (Cmax)): > 1000 nM

B6: test conjugate: 13F11-13E8-ABD conjugated to a Y27632-maleimide modified functional moiety (1e) (conjugate)
chain: B4 chain
modifications: non-natural residues; left off: large carriers; small tags and cut ends
mean arterial pressure (MAP) ([5]; BDL rats, one hour): remained constant
portal pressure (PP) ([5]; BDL rats, one hour): gradual decrease of portal pressure
portal or arterial pressure ([5]; SHAM rats): neither the test conjugate nor the mock conjugate affected portal or arterial pressure
distribution of conjugate versus tissue distribution of IGF2R (IGF2R [6]; liver of BDL rats): overlapped with the (tissue) distribution of IGF2R; also recorded: displays co-localization with IGF2R
detection of conjugate in liver of BDL rats (IGF2R [6]; [7]): clearly detected
detection of conjugate in liver of SHAM rats (IGF2R [6]; [7]): not in the healthy liver of SHAM rats

B9: 13A12: VHH targeting IGF2R, SEQ ID NO: 289 (protein, listed as Lama glama)
VHH: EVQLVESGGGLVQAGGSLRLSCAASGIIFGANTVGWYRQVPGKERDVVASITSGDSTYYGDSVRGRFTISRDNAKNTMYLQMNSLKPEDTAIYYCRARTTDGSYWGQGTQVTVS
competition with 13F11 for binding to hIGF2R-ECD (hIGF2R-ECD [2]): compete

Now from value to molecule, other results behind:

Kd (hIGF2R-ECD [1]): 1 ± 0.61 nM
B1: 13F11-A647: VHH 13F11 with C-terminal free cysteine conjugated using maleimide chemistry to Alexa Fluor 647 (conjugate)
VHH: EVQLVESGGRLVQPGDSLRLSCAASGRTFSDNAMGWFRQAPGKERRFVAGISWAGGSTYYSDSVKGRFTISRDNAKNTVYLQMNSLKPEDTAVYYCAAGLRAWVQRMPKDYNYWGQGTQVTVSS

decrease in fluorescence intensity of labelled 13F11 (hIGF2R-ECD [2]; 10 nM labelled 13F11, 250 nM unlabelled competitor): less than 5%
B3: 13E8: VHH targeting IGF2R, SEQ ID NO: 249 (protein, listed as Lama glama)
VHH: EVQLVESGGGLVQAGGSLRLSCAASRSISPMGWYRQAPGKQRELVAIMPSSGPPIYADSVQGRFTISRDNAKNTVYLQMNSLKPEDTAVYYCNVGGGYWGQGTQVTVSS
competition with 13F11 for binding to hIGF2R-ECD (hIGF2R-ECD [2]): did not compete; also recorded: do not compete

binding to cells in liver sections of SHAM rats (IGF2R [4]; 50 nM, overnight at 4° C.): not to cells in a liver from SHAM rats
staining of other tissues (kidney, spleen, heart, ileum, brain) (IGF2R [4]; BDL and SHAM rats): no, or minor staining
B5: 13F11-13E8-ABD-AF647: 13F11-13E8-ABD conjugated to Alexa Fluor 647 (conjugate)
chain: B4 chain
modifications: left off: large carriers; small tags and cut ends
binding to cells in liver sections of BDL rats (IGF2R [4]; 50 nM, overnight at 4° C.): clearly binds to cells in a liver from BDL rats

competition with 13F11 for binding to hIGF2R-ECD (hIGF2R-ECD [2]): compete
B7: 13C11: VHH targeting IGF2R, SEQ ID NO: 297 (protein, listed as Lama glama)
VHH: EVQLVESGGGLVQAGGSLRLSCAASGLTFSSYTMAWYRQAPGKEREVVAAISSGDSIYHEGSVQGRFIISRDNAKNTVYLQMNSLKAEDTAVYYCRANGPGTYWGQGTQVTVSS

competition with 13F11 for binding to hIGF2R-ECD (hIGF2R-ECD [2]): compete
B8: 13G10: VHH targeting IGF2R, SEQ ID NO: 305 (protein, listed as Lama glama)
VHH: B7 VHH with G61D
